Residue numbers refer to the chain shown, from its start. Names and notes keep the numbering of the source.
How the values were obtained:
[1] = substrate: Nc1ccn([C@H]2C[C@H](O)[C@@H](COP(=O)(O)O)O2)c(=O)n1; experiment: Kinetic parameters of PDT variants, dCMP + A ⇄ dAMP + C; type: biochemical, Lactobacillus leichmannii; settings: adenine as acceptor, fixed, 37.0 °C
Method: (§1) The standard assay (“first protocol for enzyme assay”) for the different NDTs consisted of 5-15 μg of NDT in 50 mM MES buffer pH 6.0, dNxP (dNMP, or dNDP or dNTP) 3 mM and a base 1 mM in a total volume of 50 μL. Assays were incubated for 60 min at 37° C. The products of the reactions were analyzed each 7 min by Rapid resolution high performance liquid chromatography using a reverse-phase column (ZORBAX Eclipse XDB-C18 2.1*50 mm 1.8 μM) with a flow rate of 0.25 ml/min and a linear gradient of 1-12% CH3CN (2-25% CH3CN or 1-90% CH3CN) in 20 mM triethylammonium acetate, pH 7.5, buffer for 7 min. The low resolution mass spectra of the newly synthesized deoxyribonucleotides were obtained on an Agilent 1200 series LC/MS 6120 quadrupole system using an atmospheric electrospray ionization system.
This hypothesis was confirmed by monitoring the specific activity, in the presence of dCDP or dCTP as donor and adenine as acceptor (see table 2 above). The kinetic parameters were determined for the best variants with dCMP, dCDP and dCTP as substrates, at a concentration of A being fixed (see table 3 below).

[2] = Standard enzyme assay (HPLC): specific activities of PDT variants with natural purines and pyrimidines; type: biochemical; settings: for Specific activity: donor 3 mM, acceptor 1 mM; for factor of enhancement of deoxyribose 5-phosphate transferase activity between C and A: upon substitution of F13 to arginine (PDTM3 from PDTM1, PDTM4 from PDTM2)
Method: as §1
Unless specifically mentioned, the results presented hereafter have been obtained by using the first protocol for performing the enzyme assay.

[3] = In vitro synthesis of deoxynucleotide analogues: specific activities; type: biochemical
Method: as §1
The donor concentration was 3 mM and the acceptor 1 mM except for dCTP 2 mM 5-BrU 1 mM and dAMP 2 mM 5-FU 1 mM. Activities are expressed in nanomoles of deoxynucleotides synthesized per min per mg of protein.

[4] = dAMP + 5-FU → A + 5-F-dUMP, dAMP 2 mM 5-FU 1 mM
[5] = dCMP + 2,6-D → C + 2,6-DMP, donor 3 mM, acceptor 1 mM
[6] = dCMP + 2,6-chloropurine → C + 2,6-dichloropurine 2′-deoxyribose 5′-monophosphate, donor 3 mM, acceptor 1 mM
[7] = dCMP + 5-BrU → C + 5-Br-dUMP, donor 3 mM, acceptor 1 mM
[8] = dCMP + 6-chloropurine → C + 6-chloropurine 2′-deoxyribose 5′-monophosphate, donor 3 mM, acceptor 1 mM

B1: Lactobacillus leichmannii nucleoside deoxyribosyltransferase (NDT, SEQ ID NO:1) variant PDTM3, R13 S92 (F13R/D92S), SEQ ID NO:5 (Lactobacillus leichmannii; … (protein)
chain: MPKKTIYFGAGWRTDRQNKAYKEAMEALKENPTIDLENSYVPLDNQYKGIRVDEHPEYLHDKVWATATYNNDLNGIKTNDIMLGVYIPDEESVGLGMELGYALSQGKYVLLVIPDEDYGKPINLMSWGVSDNVIKMSQLKDFNFNKPRFDFYEGAVY
notes: homohexamer (108 kDa)
Molecule B1 has a Km ([1]; other: PDTM3) of 22 mM and a kcat ([1]; other: PDTM3) of 0.3 s⁻¹.

B2: Lactobacillus leichmannii nucleoside deoxyribosyltransferase (NDT, SEQ ID NO:1) variant PDTM5, Q13 S92 S123 (F13Q/D92S/N123S), SEQ ID NO:7 (Lactobacillus … (protein)
chain: B1 chain with R13Q, N123S
notes: homohexamer (108 kDa)
Work on B2 yielded a Km ([1]; other: PDTM5) of 12 mM and a kcat ([1]; other: PDTM5) of 1.99 s⁻¹.

B3: PDTT1: NDT mutant R13 G92 T93 S123 K157, SEQ ID NO:9 (protein)
chain: B1 chain with S92G, V93T, N123S, Y157K
modifications: PDTT1 enzyme mutant
In the case of B3, the Specific activity ([2]; dADP + C ⇄ dCDP + A) is reported as 12 nanomoles of deoxynucleotides synthesized per min per mg of protein, the Specific activity ([2]; dADP + Hx ⇄ dIDP + A) is reported as <0.1 nanomoles of deoxynucleotides synthesized per min per mg of protein and the Specific activity ([2]; dAMP + C ⇄ dCMP + A) is reported as 5 nanomoles of deoxynucleotides synthesized per min per mg of protein. For the same molecule, the Specific activity ([2]; dAMP + Hx ⇄ dIMP + A) was <0.1 nanomoles of deoxynucleotides synthesized per min per mg of protein, the Specific activity ([2]; dATP + C ⇄ dCTP + A) was 1 nanomoles of deoxynucleotides synthesized per min per mg of protein and the Specific activity ([2]; dATP + Hx ⇄ dITP + A) was <0.1 nanomoles of deoxynucleotides synthesized per min per mg of protein. The Specific activity ([2]; dCDP + A ⇄ dADP + C) was 31 nanomoles of deoxynucleotides synthesized per min per mg of protein, the Specific activity ([2]; dCDP + U ⇄ dUDP + C (U used as acceptor base instead of T)) was 6 nanomoles of deoxynucleotides synthesized per min per mg of protein and the Specific activity ([2]; dCMP + A ⇄ dAMP + C) was 78 nanomoles of deoxynucleotides synthesized per min per mg of protein. The Specific activity ([2]; dCMP + T ⇄ dTMP + C) was <0.1 nanomoles of deoxynucleotides synthesized per min per mg of protein, the Specific activity ([2]; dCTP + A ⇄ dATP + C) was 10 nanomoles of deoxynucleotides synthesized per min per mg of protein and the Specific activity ([2]; dCTP + T ⇄ dTTP + C) was 1 nanomoles of deoxynucleotides synthesized per min per mg of protein. The Specific activity ([2]; dGDP + A ⇄ dADP + G) was 15 nanomoles of deoxynucleotides synthesized per min per mg of protein, the Specific activity ([2]; dGMP + A ⇄ dAMP + G) was 32 nanomoles of deoxynucleotides synthesized per min per mg of protein and the Specific activity ([2]; dGTP + A ⇄ dATP + G) was 25 nanomoles of deoxynucleotides synthesized per min per mg of protein.

B4: PDTM3: NDT mutant R13 S92, SEQ ID NO:5 (protein)
chain: B1 chain
modifications: PDTM3 enzyme mutant
With B4 the Specific activity ([2]; dAMP + C ⇄ dCMP + A) was 34.7 nanomoles of deoxynucleotides synthesized per min per mg of protein, the Specific activity ([2]; dAMP + Hx ⇄ dIMP + A) was 2 nanomoles of deoxynucleotides synthesized per min per mg of protein and the Specific activity ([2]; dCMP + A ⇄ dAMP + C) was 79.7 nanomoles of deoxynucleotides synthesized per min per mg of protein. For the same molecule, the Specific activity ([2]; dCMP + T ⇄ dTMP + C) was 18.2 nanomoles of deoxynucleotides synthesized per min per mg of protein, the Specific activity ([2]; dGMP + A ⇄ dAMP + G) was 8.5 nanomoles of deoxynucleotides synthesized per min per mg of protein and the “fold lower activity than between C and A” value ([2]; transfer of deoxyribose 5-phosphate between A and C) was “two-fold”. The “fold lower activity than between C and A” value ([2]; transfer of deoxyribose 5-phosphate between C and T) was 4 fold and the “factor of enhancement of deoxyribose 5-phosphate transferase activity between C and A” value [2] was 50.

B5: PDTM5: NDT mutant Q13 S92 S123, SEQ ID NO:7 (protein)
chain: B1 chain with R13Q, N123S
modifications: PDTM5 enzyme mutant
In the case of B5, the Specific activity [3, 4] is reported as 47 nanomoles of deoxynucleotides synthesized per min per mg of protein, the Specific activity [3, 5] is reported as 78 nanomoles of deoxynucleotides synthesized per min per mg of protein and the Specific activity [3, 6] is reported as 19 nanomoles of deoxynucleotides synthesized per min per mg of protein. The Specific activity [3, 7] was 26 nanomoles of deoxynucleotides synthesized per min per mg of protein, the Specific activity [3, 8] was 15 nanomoles of deoxynucleotides synthesized per min per mg of protein and the Specific activity ([2]; dAMP + C ⇄ dCMP + A) was 206 nanomoles of deoxynucleotides synthesized per min per mg of protein. For the same molecule, the Specific activity ([2]; dAMP + Hx ⇄ dIMP + A) was <0.1 nanomoles of deoxynucleotides synthesized per min per mg of protein, the Specific activity ([2]; dCMP + A ⇄ dAMP + C) was 296 nanomoles of deoxynucleotides synthesized per min per mg of protein and the Specific activity ([2]; dCMP + T ⇄ dTMP + C) was 1.7 nanomoles of deoxynucleotides synthesized per min per mg of protein. The Specific activity ([2]; dGMP + A ⇄ dAMP + G) was 81 nanomoles of deoxynucleotides synthesized per min per mg of protein.

B6: PDTM1: NDT single mutant D92S, SEQ ID NO:3 (protein)
chain: B1 chain with R13F
modifications: PDTM1 enzyme mutant
In the case of B6, the Specific activity ([2]; dCMP + A ⇄ dAMP + C) is reported as 1.8 nanomoles of deoxynucleotides synthesized per min per mg of protein.

B7: PDTM2: NDT double mutant D92S, N123S, SEQ ID NO:4 (protein)
chain: B1 chain with R13F, N123S
modifications: PDTM2 enzyme mutant
For B7, the Specific activity ([2]; dCMP + A ⇄ dAMP + C) was 1.7 nanomoles of deoxynucleotides synthesized per min per mg of protein.

B8: Lactobacillus leichmannii nucleoside deoxyribosyltransferase (NDT, SEQ ID NO:1) variant PDTM4, R13 S92 S123 (F13R/D92S/N123S), SEQ ID NO:6 (Lactobacillus … (protein)
chain: B1 chain with N123S
notes: homohexamer (108 kDa)
B8 gave a Km ([1]; other: PDTM4) of 11 mM and a kcat ([1]; other: PDTM4) of 2.1 s⁻¹.

B9: PDTM4: NDT mutant R13 S92 S123, SEQ ID NO:6 (protein)
chain: B1 chain with N123S
modifications: PDTM4 enzyme mutant
In the case of B9, the Specific activity [3, 4] is reported as 43 nanomoles of deoxynucleotides synthesized per min per mg of protein, the Specific activity [3, 5] is reported as 96 nanomoles of deoxynucleotides synthesized per min per mg of protein and the Specific activity [3, 6] is reported as 32 nanomoles of deoxynucleotides synthesized per min per mg of protein. The Specific activity [3, 7] was 35 nanomoles of deoxynucleotides synthesized per min per mg of protein, the Specific activity [3, 8] was 24 nanomoles of deoxynucleotides synthesized per min per mg of protein and the Specific activity ([2]; dAMP + C ⇄ dCMP + A) was 77.6 nanomoles of deoxynucleotides synthesized per min per mg of protein. For the same molecule, the Specific activity ([2]; dAMP + Hx ⇄ dIMP + A) was <0.1 nanomoles of deoxynucleotides synthesized per min per mg of protein, the Specific activity ([2]; dCMP + A ⇄ dAMP + C) was 170 nanomoles of deoxynucleotides synthesized per min per mg of protein and the Specific activity ([2]; dCMP + T ⇄ dTMP + C) was 52 nanomoles of deoxynucleotides synthesized per min per mg of protein. For the same molecule, the Specific activity ([2]; dGMP + A ⇄ dAMP + G) was 57 nanomoles of deoxynucleotides synthesized per min per mg of protein, the “factor of enhancement of deoxyribose 5-phosphate transferase activity between C and A” value [2] was 50 and the “activity relative to PDTM3” value ([2]; whatever the couple of bases tested) was “two times more active than PDTM3”.

B10: Lactobacillus leichmannii nucleoside deoxyribosyltransferase (NDT, SEQ ID NO:1) variant PDTT0, R13 G92 T93 S123 (F13R/D92G/V93T/N123S), SEQ ID NO:8 … (protein)
chain: B1 chain with S92G, V93T, N123S
notes: homohexamer (108 kDa)
With B10 the Km ([1]; other: PDTT0) was 9.2 mM and the kcat ([1]; other: PDTT0) was 0.45 s⁻¹.

B11: PDTT0: NDT mutant R13 G92 T93 S123, SEQ ID NO:8 (protein)
chain: B1 chain with S92G, V93T, N123S
modifications: PDTT0 enzyme mutant
With B11 the Specific activity ([2]; dAMP + C ⇄ dCMP + A) was 23.7 nanomoles of deoxynucleotides synthesized per min per mg of protein, the Specific activity ([2]; dAMP + Hx ⇄ dIMP + A) was <0.1 nanomoles of deoxynucleotides synthesized per min per mg of protein and the Specific activity ([2]; dCDP + A ⇄ dADP + C) was <0.1 nanomoles of deoxynucleotides synthesized per min per mg of protein. The Specific activity ([2]; dCMP + A ⇄ dAMP + C) was 46.3 nanomoles of deoxynucleotides synthesized per min per mg of protein, the Specific activity ([2]; dCMP + T ⇄ dTMP + C) was <0.1 nanomoles of deoxynucleotides synthesized per min per mg of protein and the Specific activity ([2]; dCTP + A ⇄ dATP + C) was <0.1 nanomoles of deoxynucleotides synthesized per min per mg of protein. The Specific activity ([2]; dGMP + A ⇄ dAMP + G) was 49 nanomoles of deoxynucleotides synthesized per min per mg of protein.

B12: NDTWT: wild-type nucleoside deoxyribosyltransferase of Lactobacillus leichmannii, SEQ ID NO:1 (F13E91D92V93N123Y157) (protein, listed as Lactobacillus leichmannii)
chain: B1 chain with R13F, S92D
In the case of B12, the Specific activity ([2]; dCMP + A ⇄ dAMP + C) is reported as 0.1 nanomoles of deoxynucleotides synthesized per min per mg of protein.
